# Results as given in US20110053865A1 (published 2011).
# Read-outs that look alike come from different tables or passages of the source.
# T1: recombinant human IL-12 (human, UniProt P29459 23-219; P29460 23-328)
# T1 chain 1: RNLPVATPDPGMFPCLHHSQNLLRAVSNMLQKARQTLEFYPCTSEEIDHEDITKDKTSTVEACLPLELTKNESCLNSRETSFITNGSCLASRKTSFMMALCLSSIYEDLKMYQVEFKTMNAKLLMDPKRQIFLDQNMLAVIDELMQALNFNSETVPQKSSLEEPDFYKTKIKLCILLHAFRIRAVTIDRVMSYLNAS
# T1 chain 2: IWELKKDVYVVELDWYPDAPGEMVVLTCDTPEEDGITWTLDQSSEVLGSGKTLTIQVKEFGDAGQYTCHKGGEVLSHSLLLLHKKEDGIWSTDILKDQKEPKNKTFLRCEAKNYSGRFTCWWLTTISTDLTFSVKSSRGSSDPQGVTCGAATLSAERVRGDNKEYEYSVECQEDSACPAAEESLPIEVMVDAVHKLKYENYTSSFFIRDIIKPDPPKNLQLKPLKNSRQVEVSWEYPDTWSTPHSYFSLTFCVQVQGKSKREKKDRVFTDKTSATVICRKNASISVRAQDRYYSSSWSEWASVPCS
# T2: recombinant human IL-23 (p19/p40) (human, UniProt Q9NPF7 20-189; P29460 23-328)
# T2 chain 1: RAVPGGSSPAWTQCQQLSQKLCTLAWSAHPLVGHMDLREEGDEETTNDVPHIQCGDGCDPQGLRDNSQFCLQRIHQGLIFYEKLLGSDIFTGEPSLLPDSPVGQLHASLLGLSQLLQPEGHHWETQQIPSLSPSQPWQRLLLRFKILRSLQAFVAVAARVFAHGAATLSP
# T2 chain 2: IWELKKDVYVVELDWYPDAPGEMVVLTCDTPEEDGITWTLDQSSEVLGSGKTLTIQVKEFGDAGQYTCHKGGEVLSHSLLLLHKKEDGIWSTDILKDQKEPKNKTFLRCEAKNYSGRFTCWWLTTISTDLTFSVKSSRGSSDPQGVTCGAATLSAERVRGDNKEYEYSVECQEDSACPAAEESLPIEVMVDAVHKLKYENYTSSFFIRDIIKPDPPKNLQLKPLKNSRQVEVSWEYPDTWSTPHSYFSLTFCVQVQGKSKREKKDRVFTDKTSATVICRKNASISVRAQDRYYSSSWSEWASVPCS
# Tests used:
# recombinant human IL-12 [1] = molecular target: T1, recombinant human IL-12; test: Biacore
# recombinant human IL-12 [2] = molecular target: T1, recombinant human IL-12; test: Biacore
# [3] = molecular target: T2, recombinant human IL-23 (p19/p40); test: alpha-screen hIL-23/hIL-23R; Fig 6
# [4] = molecular target: T2, recombinant human IL-23 (p19/p40); test: Biacore; eBiosc hIL23
# [5] = molecular target: T2, recombinant human IL-23 (p19/p40); test: alpha-screen hIL-23/hIL-23R; Fig 7
binder,measurement,setting,value
P23IL81E10 (VHH) VHH: EVQLVESGGGLVQAGGSLRLSCVASGRTFNTYGMGWFRQAPGKEREFVAANNWSGGATSYADSVKGRFTISRDNAKNTVFLQMNTLKPEDTAVYYCAAADRGGGWLVVRENDYDYWGQGTQVTVSS,koff,recombinant human IL-12 [1],0.00266 s⁻¹
same,koff,recombinant human IL-12 [2],0.00266 s⁻¹
P23IL3B8 (VHH) VHH: EVQLVESGGGLVQPGGSLRLSCAASGFTFSSSVMFWLRQAPGKGLEWLSTIKPTGSTIYPGSGKGRFTISRDNAKNTLYLQINNLKPEDTALYYCARDIGGTVRGQGTQVTVSS,koff,recombinant human IL-12 [2],0.00243 s⁻¹
121A2-119G7 (antibody) EVQLVESGGGLVQAGGSLRLSCAASGSIFNFNYMGWFRQAPGKEREFVAAIRWSGSSTYYADSVKGRFTISRDDAKNTVALQMNSLKPEDTAIYYCALRKGIPYSTSDRVIKGVNDYDYWGQGTQVTVSSGGGGSGGGGSGGGGSGGGGSGGGGSGGGGSGGGGSEVQLVESGGGLVQAGGSLTLSCAVSGLTFNNYAMGWFRQVPGKEREFVAAISRSGLRTFYSDSVKGRFTISRDSAKSTVYVQMNNLKPEDTAVYFCAADRRTYYSEGPSLTDTLRYDYWGQGTQVTVSS,IC50,[3],0.131 nM
P23IL3C1 (VHH) VHH: EVQLVESGGGSVQAGGSLRLSCKVSGIMFSDKGMGWFRQAPGKERETVAATNWSGGSTYYADSVKGRFTISRDNYKNTLHLQMASLKPEDTGIYYCAAAGDSWNSRRIEDYDYWGQGTPVTVSS,koff,recombinant human IL-12 [2],0.000279 s⁻¹
P23IL81A12 (VHH) VHH: EVQLVESGGGLVQAGGSLRLSCAASGRTLSSYAMGWFRQAPGKEREFVARISQGGTAIYYADSVKGRFTISRDNAKNTVYLQMNSLKPEDTAVYYCAKDPSPYYRGSAYLLSGSYDSWGQGTQVTVSS,koff,[4],0.000113 s⁻¹
P23IL-121A2 (VHH) VHH: EVQLVESGGGLVQAGGSLRLSCAASGSIFNFNYMGWFRQAPGKEREFVAAIRWSGSSTYYADSVKGRFTISRDDAKNTVALQMNSLKPEDTAIYYCALRKGIPYSTSDRVIKGVNDYDYWGQGTQVTVSS,IC50,[3],0.299 nM
same,IC50,[5],0.27 nM
P23IL 3F11 (VHH) VHH: EVQLVESGGGLVQAGGSLRLSCAASGSIFSINAMGWFRQAPGKERQFVAAINWSTGSTYYSDSVKGRFTISRDNAKNTVYLQMNSLKPEDTAVYFCASGYLFPSSRGSQYDYWGQGTQVTVSS,koff,recombinant human IL-12 [2],0.00134 s⁻¹
P23IL119A3 (VHH) VHH: EVQLVESGGGLVQAGGSLRLSCAASGRIFSLPASGNIFNLLTIAWHRQAPGMQRELVATINSGSRTNYADSVKGRFTISRDNAQKTVYLQMNNLKPEDTAVYYCQTSGSGSPNFWGQGTQVTVSS,IC50,[5],0.67 nM
P23IL119G7 (VHH) VHH: EVQLVESGGGLVQAGGSLTLSCAVSGLTFNNYAMGWFRQVPGKEREFVAAISRSGLRTFYSDSVKGRFTISRDSAKSTVYVQMNNLKPEDTAVYFCAADRRTYYSEGPSLTDTLRYDYWGQGTQVTVSS,koff,[4],0.000479 s⁻¹
P23IL3G10 (VHH) VHH: EVQLVESGGGVVQAGESLRLSCAASGYNVKDYEMGWFRQAPGMEREFAAAISWRGSSTYYADSVKGRFTISRDNAKNTVYLQMSSLKPEDTAVYYCAAGRLYPSSRSRDYDYWGQGTQVTVSS,koff,recombinant human IL-12 [2],0.00244 s⁻¹
P23IL81G2 (VHH) VHH: EVQLVESGGGLVQPGGSLRLSCIASGLPFSTKSMGWFRQAPGKEREFVARISPGGTSRYYGDFVKGRFAISRDNAKNTTWLQMNSLKAEDTAVYYCASGERSTYIGSNYYRTNEYDYWGTGTQVTVSS,koff,[4],0.000257 s⁻¹
119A3-119G7 (antibody) EVQLVESGGGLVQAGGSLRLSCAASGRIFSLPASGNIFNLLTIAWHRQAPGMQRELVATINSGSRTNYADSVKGRFTISRDNAQKTVYLQMNNLKPEDTAVYYCQTSGSGSPNFWGQGTQVTVSSGGGGSGGGGSGGGGSGGGGSGGGGSGGGGSGGGGSEVQLVESGGGLVQAGGSLTLSCAVSGLTFNNYAMGWFRQVPGKEREFVAAISRSGLRTFYSDSVKGRFTISRDSAKSTVYVQMNNLKPEDTAVYFCAADRRTYYSEGPSLTDTLRYDYWGQGTQVTVSS,IC50,[5],0.132 nM
